Drawing on PMC11063326, “2-oxoglutarate-dependent dioxygenases and BAHD acyltransferases drive the structural diversification of orobanchol in Fabaceae plants” (Frontiers in Plant Science, 2024), this text covers Km and Vmax for one protein.

Substrate in the series: CC1=C[C@H](O/C=C2/C(=O)O[C@@H]3[C@H]2[C@@H](O)[C@]24CCCC(C)(C)[C@]32O4)OC1=O
Kind of series: product formation (fabacyl acetate) by LC-MS/MS, crude recombinant enzyme. In kind it is biochemical, Lathyrus oleraceus. Conditions: 200 μM acetyl-CoA, 50 mM citrate pH 6.0, 30°C. From the text: product formation (fabacyl acetate) by LC-MS/MS, crude recombinant enzyme on PsFAT (fabacol acetyltransferase, Psat7g079960)

B1: PsFAT (fabacol acetyltransferase, Psat7g079960) (Lathyrus oleraceus) (protein)
chain: MEMEIISREFIKPSSPTPPHLRNFPISFIDHITFRYYVPLLFFYNDTKVSDQKSKISHLKSSLSQILSIYYPFAGRFKDQRSIECNDQGVLFLVANITGIKLSTILENPDEKLFDHLFPDQLQWKLMEWNESILVVQINCFACGGIVISVCTCHKIIDATTAFNFVNDWSKLNREQESESKSTSASLLPYNLLYAGDTIFSLGNLPKFPEVDFAIDKTIVCKRFVFEASKIKLLKNLVNFNSHVVENPTRVEVITALIYKCVVSTLGLNFKTTSLQIAVNLRKRMIPPLSNKCVGNLVWILFVMNPELHDLVFRIRQGLSEFCEVYPKKFGGKEKDSSFICECLKQVTTRVSESDNNQSLIAYASWCKFPMYEADFGWGKPIWVTTSACPARNAVILMDTRDGDGIEVIVSMKKNDMVRFECDVELLQYASVNPSITS
notes: complete CDS from root cDNA, modified pCold III, E. coli BL21(DE3) with GroES/GroEL; crude E. coli extract
Turning to B1, the Km was found to be 0.287 ± 0.076 µM and the Vmax amounted to 0.00745 µM/min.

What is called Km is the substrate concentration at which the rate is half of its maximum. As usually defined, the Vmax is the top rate of the reaction or transport when substrate is in excess.
